Assay results published in article doi:10.1101/2025.07.10.664112 (bioRxiv, 2025).
Values joined by “and” are separate entries in the source; they are usually repeats but may differ in a detail not shown here. Identical values can stand only once.

Target: the molecule itself
Assay: mass photometry

B1: Heterogeneous nuclear ribonucleoprotein A2/B1 (hnRNPA2B1), full length, tag-free (natural protein, human, UniProt P22626 1-353, looked up)
chain: MEKTLETVPLERKKREKEQFRKLFIGGLSFETTEESLRNYYEQWGKLTDCVVMRDPASKRSRGFGFVTFSSMAEVDAAMAARPHSIDGRVVEPKRAVAREESGKPGAHVTVKKLFVGGIKEDTEEHHLRDYFEEYGKIDTIEIITDRQSGKKRGFGFVTFDDHDPVDKIVLQKYHTINGHNAEVRKALSRQEMQEVQSSRSGRGGNFGFGDSRGGGGNFGPGPGSNFRGGSDGYGSGRGFGDGYNGYGGGPGGGNFGGSPGYGGGRGGYGGGGPGYGNQGGGYGGGYDNYGGGNYGSGNYNDFGNYNQQPSNYGPMKSGNFGGSRNMGGPYGGGNYGPGGSGGSGGYGGRSRY
stoichiometry N: 2 and 4
